Measurements: IntAct's records for PubMed 18480252

B1: [PIN+] prion protein RNQ1 (Saccharomyces cerevisiae), P25367 (parent)
chain: MDTDKLISEAESHFSQGNHAEAVAKLTSAAQSNPNDEQMSTIESLIQKIAGYVMDNRSGGSDASQDRAAGGGSSFMNTLMADSKGSSQTQLGKLALLATVMTHSSNKGSSNRGFDVGTVMSMLSGSGGGSQSMGASGLAALASQFFKSGNNSQGQGQGQGQGQGQGQGQGQGSFTALASLASSFMNSNNNNQQGQNQSSGGSSFGALASMASSFMHSNNNQNSNNSQQGYNQSYQNGNQNSQGYNNQQYQGGNGGYQQQQGQSGGAFSSLASMAQSYLGGGQTQSNQQQYNQQGQNNQQQYQQQGQNYQHQQQGQQQQQGHSSSFSALASMASSYLGNNSNSNSSYGGQQQANEYGRPQQNGQQQSNEYGRPQYGGNQNSNGQHESFNFSGNFSQQNNNGNQNRY
partner: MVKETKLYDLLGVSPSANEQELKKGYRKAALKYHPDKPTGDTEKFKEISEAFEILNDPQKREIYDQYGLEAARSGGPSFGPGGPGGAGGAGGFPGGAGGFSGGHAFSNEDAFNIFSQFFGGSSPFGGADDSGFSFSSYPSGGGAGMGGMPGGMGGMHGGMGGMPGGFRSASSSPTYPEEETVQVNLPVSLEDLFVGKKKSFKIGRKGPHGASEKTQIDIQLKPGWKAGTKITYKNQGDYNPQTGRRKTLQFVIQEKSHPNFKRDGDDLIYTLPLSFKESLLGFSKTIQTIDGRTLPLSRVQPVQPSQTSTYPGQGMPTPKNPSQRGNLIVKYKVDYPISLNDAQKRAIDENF

Variants of: B1
Conditions: with sis1_yeast SIS1, P25294

| Variant | effect of a mutation on the interaction |
| --- | --- |
| L94A | decreasing interaction |
